This is an account of results in the DeepSol protein solubility set.

The nature of the data set: soluble on expression in E. coli; label from the status in PepcDB or PDB records.
For “MLKRTRSLVCLCLAAAISSPTTYANSIDLPDIGTAAGGTLSIDQELIYGDAYMRMLRASKPIVNDPVINEYIDSLGHRLVANANDVKTPFHFFMIRDRNINAFAFFGGYVALHSGLFLHARSESELASVVAHEIAHVTQRHLARSMEDQARRSPATLAALAGALLLSIASPEAGMAAITAATAGNMQSQINYTRSNEKEADRFGIATLAKAGFDVQAMPRFFGRLADEYRYASKPPPMLLTHPLPEDRVADSRQRAQAYPPMRIAPSIDYHLARARIVARYAGIDGQAALGWFERTQKKASADIMPSFDYGRALVHLDNKRLSQAEPILKKLLAQDPGNPFYLDAMTDLYIEKKQPQKAVELLNSALKRNPQNKVLTINYANALLEANQNDQAVRTLQRYTHDNPEDSNGWQLLSKGYHALGRSDEELAARAEILALRANWNKAIQYYSEASKMAELGSLEQARYDARIDQLMIQRDRFMALQLEHHHHHH”, the “soluble on expression in E. coli” value is “soluble”. The value for “TTFENKKVLVLGLARSGEAAARLLAKLGAIVTVNDGKPFDENPTAQSLLEEGIKVVCGSHPLELLDEDFCYMIKNPGIPYNNPMVKKALEKQIPVL” was “not soluble”; that for “MIQFKNISKHYQLKGQTIHALDQINLDIPAGSIFGIIGYSGAGKSTLIRLINLLERPTHGQIIINQKDFTALNAQSLRQERANIGMIFQHFNLLQTKTVAANIEMPLKLLGYSKIEREKRLMELLDFIDLTHKKDAFPDELSGGQKQRVGIARALANHPKILLCDEATSALDPQTTKSVLALLKKINKEQGITIVMVTHEMDVIESICDHVAVMESGHVIETGPTVEIFSNPQHPTTKTFIQTVLQQHLPVNILSKLEHQHHHSIYRLQFLGKSAQEPVIQSMIKQFDISLNILFANMTEIDGTVIGQMFVQLLGDDTLIQQAIEFLERHGVSVNQSGEQV” was “not soluble”; that for “MAQIVRQSKFRHVFCKPVKHESCMSDIRVTEITWDSLFCDVNPKFIAFINRGAGGPFMVIPVNKIGRVDKDYPFVDAHKAPCLEVAWSPFNDNVIASCSEDTTCKVWVIPDRGLNRNLSEPAVELTGHQKRVNTIAWHPVANNVLLTAGGENVMFMWNVGTGEALLEISGHPDQIWSINFNFDGSQFVTTCKDKKIRILDSHTGEVVHEGMGHEGVKPQRAIFVKDGLILSTGFTKRSERLYALRAPEDLSTPIVEEELDTSNGVVFPFYDEDSGLVYLVGKGDCAIRYYEVNNDAPYVHYINTYTTNEPQRAVGFQSKRGMSSEENEINRIYKLTTKGVVDILQFFVPRKSDLFQHDLYPDTRSTIPALTAEEFMEGKNAAPNRQPVNAAAAAAAAKPKVQVAKKANILSTLAPTAAESVPTQSYSERPPSSQQPSPRPSASPRPRPVVDDDMGIVTMREAPPSRPASSRASRTEIPPKEESKVDPMKPKQAVQLKSRAARDEPGGGAQTAGQRRAAAELERIKRDQSRTADEDNTLAPPPSSSRASASPRGSVSAASDHVPQNMDELLEDLMKMKAVLRQHERRIRMLEEEIADRNMSNAYSF” was “not soluble”. The result for “MSLGLLNCLTGAALPLMESDVTSYVSGYALGLTASLTYGNLEAQPFQGLFVYPIDEYSTVVGFEAVIADRVVTIQLRDKAKLDRSHLDIQPATVTGNFPEEESPIAPGKVTLDEDLERVLFVVNLGTIAPMENVTVFISTSSELPTLPSGAVRVLLPAICAPTVPPSCTHRFGSSSPQPQGKDPHCFGTQTKDSYNRLCLATLLDTKVTNPMEYEFKFQLEIRGPCLLAGVESPTHEIRADAAPSAHSAKSIIITLAKKHTFDRPVEILLHPSEPHMPHVLVEKGDMTLGEYDQHLKGKADFIRGTKKDNSAERKTEVIRKRLHKDIPHHSVIMLNFCPDLQSVQPNPRKAHGEFIFLIDRSNSMSKTNIQCIKEAMLVALKSLMPACFFNIIGFGSTFKAVFASSRIYNEENLTMACDCIQRMQADMGGTNMLSPLKWVLRQPLRRGHPRLLFLITDGSVNNTGKVLELVRNHASSTRCYSFGIGPTVCYRLVKGLASVSKGSAEFLMEGERLQPKMVKSLKKAMAPVLSDVTVEWVFPETTEALISPVSTSSLFPGERLMGYGIVCDASLYISNSRSEGHHHHHH” reads “not soluble”. The value for “MHHHHHHSSGRENLYFQGQKDGIFKVMLVGESGVGKSTLAGTFGGLQGDSAHEPENPEDTYERRIMVDKEEVTLVVYDIWEQGDAGGWLRDHCLQTGDAFLIVFSVTDRRSFSKVPETLLRLRAGRPHHDLPVILVGNKSDLARSREVSLEEGRHLAGTLSCKHIETSAALHHNTRELFEGAVRQIRLRRGRNHA” was “soluble”; that for “MSYVTTKDGVQIFYKDWGPRDAPVIHFHHGWPLSADDWDAQLLFFLAHGYRVVAHDRRGHGRSSQVWDGHDMDHYADDVAAVVAHLGIQGAVHVGHSTGGGEVVRYMARHPEDKVAKAVLIAAVPPLMVQTPGNPGGLPKSVFDGFQAQVASNRAQFYRDVPAGPFYGYNRPGVEASEGIIGNWWRQGMIGSAKAHYDGIVAFSQTDFTEDLKGIQQPVLVMHGDDDQIVPYENSGVLSAKLLPNGALKTYKGYPHGMPTTHADVINADLLAFIRS” was “soluble”; that for “MSVIYKVVTRPSDPRVPNSPKKYYPHLITLGQSVNLKYIAQKMQGYSSLSIGDIKSVIQNFVEKMKEQLLEGKSVNIEGLGVFMLTACSKGADAAKDVNAKSVDSVRIFFQANKELRITKTATRADEKLDLISLDEYLKKLNASVTPNDPDDGENGGGGNEGGDEEAPDPTV” was “not soluble”.

As for “MGSDKIHHHHHHMFEHRFKDLHHTYRAIREVESEHHNIANIIKYVHKNNRVRQPSVGSHIRLRKKWEVEKSTLHARLSWDLERMQVWQLEHLSKLVDFAYNYVPFYHALYHEAGFRTGDIVTWSDFEKLPIVDKKMLVDNRSALCASIGFAPDNHHVARTSGSSGINFTIVQDDTSVDTRVVLNLRQTEMMVGHALSPDDWRYGIYLASERFTSLAGGYPVITVGQDCPAVDVFEHIQKIKPKILYAFPSYLKRLQVCAGDLTEWGVECICTNSEPSTQEERQVFARHFGVPVLDEYSSEEFSLIATECRYGRYHIVEDNLKAEVCNIDPEGWGTLVGTSFANTYMPFIRYSQGDIVKLDARQILCECGTHFRYLDTFHGRADQFLESKNNGKIPPDKLMGLYDSTLILETSGVKEFQIVQTHLDKIEIRIVLMDKEGAYNYALMSNFVSGIKQLFSGDPLTVSVHVLESIPAAKSYKRRLIVNMINS”, the “soluble on expression in E. coli” value is given as “not soluble”.

With “MSRRRQFDDEDEVQMKRRRGAPLIEDVEKKLQGVIGKVGENTGSSIECNLDKLTAFLHDDLEKYRASIIDIIAGCAIYLPNRVTVYTTLVGLLNSKNFNFGGDVVEKLISEQQDLLSKQKYQEAQNLAIFLCDLGNSGVLTAQSIGEYLESFIAAAFEENMPQVRNDYYIQTVLRCLPWIGKELTEKAPEQMENIGEAIGKYLELRNKNHVALLQVWREGSTDQKQEDYLESLSAQIEALRNADWVENHIPRHYSGFETTLQDALQHNLPSFQSPEHTSDMIYPYPLVVFRLFQDADCSAFSSKPLPGDSSIDRFLFEGEIAWIIEKNQFNRKACARELLAFAEENPSVPIGFLIFETIFGQMLRLPHAPYPAIFHCSLVLELLKLKPDDYPQILVQTVECIYRRADSMQPVCIDRMVDWFSFHLSNFQYRYTWTDWKDCLNKDAFSGSQIFVREVIEKCRRFGSYEKIIAALPQDFVKIHPCSPEVRYLIDEEDTALVQRAETFTQMFQERQPAEAFLNELKSNDENDELPYNINEFGLFVMVMLKMASKTYSHNFSALFRYQTTLKTVCDASELYQEKLLETLYSCWKTNQQMLMILTDKLLKMQVIDCSAVVGWLFDEKMWQEHDRQWLFEVLNQALEKLTRQINVVEKDIKELTEKTENKIKEEDDEESDIKMDEDETKEEKFKQDLEDLENNKEKLERMVTFQKGLFNDFLIAFIEEIKNAATSNTSEMDGSGDTPGTQTPKFMWLRGRFCHVLLAHAETLLKHSSNIADEVFSEGTDPSIIECFNQFQSLRL”, the “soluble on expression in E. coli” value is reported as “not soluble”. Regarding “MNLQHHFLIAMPALQDPIFRRSVVYICEHNQNGAMGIIVNKPLENLQIEGILEKLKITPESRDSAIRLDKAVMLGGPLAEDRGFILHTPPSRFASSIRISDNTVITTSRDVLETLGTQQQPSDVLVALGYASWDKGQLEQELLDNAWLTAPADLNILFKTPIAERWREAAKLIGIDILTMPGVAGHALEHHHHHH”, the “soluble on expression in E. coli” value was “soluble”. The value for “SMVLLTMIARVADGLPLAASMQEDEQSGRDLQQYQSQAKQLFRKLNEQSPTRCTLEAGAMTFHYIIEQGVCYLVLCEAAFPKKLAFAYLEDLHSEFDEQHGKKVPTVSRPYSFIEFDTFIQKTKKLYIDSRARRNLGSINTELQDVQRIMVANIEEVLQRGEALSALDSKANNLSSLSKKYRQDAKYLNMRSTYAK” was “soluble”.
